Results on 1 substance are retold here after article PMC6918676.

This assay addresses full length Trk-A with a C-terminal (GGS)5 linker and eYFP or mTurquoise (human) (UniProt P04629). The assay is described as follows: FRET or BRET. In general terms: BRET reads energy transfer from a luciferase to a nearby fluorophore.

Sequence of full length Trk-A with a C-terminal (GGS)5 linker and eYFP or mTurquoise (P04629 33-796): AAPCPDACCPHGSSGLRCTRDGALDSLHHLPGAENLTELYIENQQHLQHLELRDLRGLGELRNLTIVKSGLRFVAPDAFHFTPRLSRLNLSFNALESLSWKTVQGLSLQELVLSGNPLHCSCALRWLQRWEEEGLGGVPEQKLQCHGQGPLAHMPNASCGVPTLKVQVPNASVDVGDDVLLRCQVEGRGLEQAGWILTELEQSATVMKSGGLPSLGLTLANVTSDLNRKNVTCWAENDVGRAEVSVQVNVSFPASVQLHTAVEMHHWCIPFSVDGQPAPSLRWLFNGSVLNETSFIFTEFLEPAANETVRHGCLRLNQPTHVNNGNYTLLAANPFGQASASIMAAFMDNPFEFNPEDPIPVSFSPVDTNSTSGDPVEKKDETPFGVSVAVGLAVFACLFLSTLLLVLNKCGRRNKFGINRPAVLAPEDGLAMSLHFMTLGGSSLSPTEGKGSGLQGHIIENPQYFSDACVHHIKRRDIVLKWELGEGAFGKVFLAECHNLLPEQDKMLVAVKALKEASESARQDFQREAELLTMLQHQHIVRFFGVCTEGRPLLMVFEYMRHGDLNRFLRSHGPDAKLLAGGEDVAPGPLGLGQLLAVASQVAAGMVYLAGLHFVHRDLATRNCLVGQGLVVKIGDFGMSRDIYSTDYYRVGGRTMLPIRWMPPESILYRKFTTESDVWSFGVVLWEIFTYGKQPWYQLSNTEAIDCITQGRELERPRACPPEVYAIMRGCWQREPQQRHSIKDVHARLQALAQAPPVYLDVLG

On to “full length Trk-A with a C-terminal (GGS)5 linker and eYFP or mTurquoise (from UniProt P04629 33-796) (receptor)”, for which the stoichiometry N (in general, the number of molecules, sites or subunits per partner or assembly) amounted to 2.
